Reference: patent US20210363269A1 (ALX ONCOLOGY, published 2021)

T1: cynomolgus SIRP-α D1 domain (cyno2) (cynomolgus monkey, UniProt Q5TFQ8 30-148 (human entry), limits assumed)
T1 chain: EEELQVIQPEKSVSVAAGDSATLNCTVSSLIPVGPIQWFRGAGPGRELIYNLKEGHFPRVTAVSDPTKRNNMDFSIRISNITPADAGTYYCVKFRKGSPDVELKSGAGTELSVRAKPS

T2: cynomolgus SIRP-α D1 domain (cyno1) (cynomolgus monkey, UniProt Q5TFQ8 30-148 (human entry), limits assumed)
T2 chain: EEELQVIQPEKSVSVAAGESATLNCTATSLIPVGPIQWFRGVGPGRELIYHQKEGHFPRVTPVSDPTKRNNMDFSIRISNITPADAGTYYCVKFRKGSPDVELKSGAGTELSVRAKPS

T3: high affinity SIRP-α D1 variant CV1-3
T3 chain: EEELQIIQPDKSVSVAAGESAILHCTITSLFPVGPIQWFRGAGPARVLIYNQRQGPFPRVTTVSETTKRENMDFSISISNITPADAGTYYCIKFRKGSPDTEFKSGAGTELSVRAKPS

T4: mouse 129 SIRP-α D1 domain (mouse (129 strain), UniProt P97797 32-150)
T4 construct: also called m129
T4 chain: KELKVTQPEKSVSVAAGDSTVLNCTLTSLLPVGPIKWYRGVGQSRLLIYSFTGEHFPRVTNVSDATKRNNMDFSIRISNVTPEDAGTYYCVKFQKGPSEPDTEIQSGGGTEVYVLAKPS

T5: NOD mouse SIRP-α D1 domain (mouse (NOD strain))
T5 chain: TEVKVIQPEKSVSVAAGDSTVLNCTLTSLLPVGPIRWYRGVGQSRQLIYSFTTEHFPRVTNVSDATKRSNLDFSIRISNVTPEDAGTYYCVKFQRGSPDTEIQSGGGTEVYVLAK

T6: C57BL/6 mouse SIRP-α D1 domain (mouse (C57BL/6 strain), UniProt P97797 32-148)
T6 sequence: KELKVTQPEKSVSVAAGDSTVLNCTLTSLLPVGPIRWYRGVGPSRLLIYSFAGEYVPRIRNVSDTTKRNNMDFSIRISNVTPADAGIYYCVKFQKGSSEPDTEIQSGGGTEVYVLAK


Experiments:
[1] = target: T7, human SIRP-α v2 D1 domain (human); assay: SPR, antibody immobilised on GLC chip
T7 construct: biotinylated and captured on avidin in the ELISA; also called human v2
Method in brief: (§1)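 Protein A-purified antibodies were diluted to 80 nM in 10 mM sodium acetate pH 4.5 and amine-coupled (~1000 RU) to a GLC chip of a ProteOn XPR36 biosensor. SIRP analytes were injected one-shot at 100, 33, 11, 3.7, 1.2 and 0 nM in PBS pH 7.4 with 0.01% Tween-20 at 25° C. Association ran 90 s at 100 μL/min and dissociation 1200 s. KD came from double-referenced data fitted globally to a Langmuir model, as kd/ka.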

[2] = target: T8, human SIRP-α v1 D1 domain (human, UniProt P78324 31-149); assay: SPR, antibody immobilised on GLC chip
T8 construct: biotinylated and captured on avidin in the ELISA; also called human v1
Method in brief: as §1
T8 sequence (P78324 31-149 limits assumed): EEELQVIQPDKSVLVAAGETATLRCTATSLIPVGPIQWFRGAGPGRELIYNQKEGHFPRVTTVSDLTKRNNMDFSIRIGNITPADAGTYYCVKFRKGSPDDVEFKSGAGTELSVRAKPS

[3] = target: T1, cynomolgus SIRP-α D1 domain (cyno2); assay: SPR, Langmuir fit
Method in brief: (§2)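 Pre-filtered culture media supplied the scFv-Fc antibody clones, which were captured by anti-human IgG Fc amine-coupled (about 4000 RU) to a GLC chip on a ProteOn XPR36. SIRP analytes were flowed in PBS pH 7.4 with 0.01% Tween-20 at 25° C. Interspot and buffer-blank responses were subtracted from the data, which were then fitted to a 1:1 Langmuir model. Dissociation rate constants (koff) were derived from this fitting.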

[4] = target: T2, cynomolgus SIRP-α D1 domain (cyno1); assay: SPR, Langmuir fit
Method in brief: as §2

[5] = target: T3, high affinity SIRP-α D1 variant CV1-3; assay: SPR, Langmuir fit
Method in brief: as §2

[6] = target: T9, human SIRP-α v2 D1 domain (human); assay: SPR, Langmuir fit
T9 construct: also called human v2
Method in brief: as §2
T9 sequence (chain, as listed by the source limits assumed): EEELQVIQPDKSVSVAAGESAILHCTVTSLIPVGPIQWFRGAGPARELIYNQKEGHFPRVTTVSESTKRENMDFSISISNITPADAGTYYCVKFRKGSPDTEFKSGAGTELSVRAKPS

[7] = target: T10, human SIRP-α v1 D1 domain (human, UniProt P78324 31-149); assay: SPR, Langmuir fit
T10 construct: also called human v1
Method in brief: as §2
T10 sequence (P78324 31-149 limits assumed): as the sequence (P78324 31-149 limits assumed) above

human SIRPβ isoform 1 = target: T11, human SIRPβ isoform 1 (human, UniProt O00241 30-148); assay: SPR, Langmuir fit
T11 construct: also called SIRPb; sirpb1
Method in brief: as §2

[8] = target: T4, mouse 129 SIRP-α D1 domain; assay: SPR
Method in brief: as §2

[9] = target: T5, NOD mouse SIRP-α D1 domain; assay: SPR
Method in brief: as §2

[10] = target: T6, C57BL/6 mouse SIRP-α D1 domain; assay: SPR
Method in brief: as §2

human SIRPγ isoform 1 = target: T12, human SIRPγ isoform 1 (human, UniProt Q9P1W8 29-147); assay: SPR, Langmuir fit
T12 construct: also called SIRPg; sirpg
Method in brief: as §2

T11 sequence (O00241 30-148 limits assumed): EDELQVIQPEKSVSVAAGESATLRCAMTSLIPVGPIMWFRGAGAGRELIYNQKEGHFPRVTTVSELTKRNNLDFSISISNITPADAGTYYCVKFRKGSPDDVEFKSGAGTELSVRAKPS
T12 sequence (Q9P1W8 29-147 limits assumed): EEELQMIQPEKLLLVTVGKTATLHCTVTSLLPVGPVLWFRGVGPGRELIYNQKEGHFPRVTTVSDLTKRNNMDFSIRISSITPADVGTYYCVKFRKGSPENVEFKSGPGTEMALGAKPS

Binder | binding result [1] | binding result [2] | koff [3] [s⁻¹] | koff [4] [s⁻¹] | koff [5] [s⁻¹] | koff [6] [s⁻¹] | koff [7] [s⁻¹] | koff (human SIRPβ isoform 1) [s⁻¹] | binding result [8] | binding result [9] | binding result [10] | koff (human SIRPγ isoform 1) [s⁻¹]
135 wt/wt_M34V (antibody, human IgG1, V domains shown, human IgG1 with L234A, L235A, G237A, N297A) VH: DVQLVESGGGVVRPGESLRLSCAASGFSFSIYAVSWVRQAPGEGLEWVSTIGADDTYYADSVKGRFTISRDNSKNTLYLQMNSLRAEDTAVYYCAKDSTVGWSGDFFDYWGLGTLVTVSS VL: EIVLTQSPATLSVSPGERVTFSCRASQNVRSDIAWYQQKPGQAPRLLIYAASSRDTGIPDRFSGSGSGTDFTLTISSLQSEDFGVYYCQQYYDWPPFTFGGGTKVEIK | binds | binds | – | – | – | – | – | – | – | – | – | –
135 wt/wt_M34L (antibody, human IgG1, V domains shown, human IgG1 with L234A, L235A, G237A, N297A) VH: DVQLVESGGGVVRPGESLRLSCAASGFSFSIYALSWVRQAPGEGLEWVSTIGADDTYYADSVKGRFTISRDNSKNTLYLQMNSLRAEDTAVYYCAKDSTVGWSGDFFDYWGLGTLVTVSS VL: EIVLTQSPATLSVSPGERVTFSCRASQNVRSDIAWYQQKPGQAPRLLIYAASSRDTGIPDRFSGSGSGTDFTLTISSLQSEDFGVYYCQQYYDWPPFTFGGGTKVEIK | binds | binds | – | – | – | – | – | – | – | – | – | –
S191 (scFv, V domains shown, also called clone 191) VH: DVQLVESGGGVVRPGESLRLSCAASGFSFSSYAMNWVRQAPGEGLEWVSRINSGGGGTDYAESVKGRFTISRDNSENTLYLQMNSLRAEDTAVYYCAKQYDWNGFFDYWGLGALVTVSS VL: ETVLTQSPATLSVSPGERATLSCRASQTVGSKLAWHQQKPGQAPRLLIYDATNRATGIPDRFSGSGSGTDFTLTISGLQTEDSAVYYCQQYYYWPPYRFGGGTKVEIK | – | – | 1.38e-05 | 5.54e-05 | 0.000295 | 3.53e-05 | 6.67e-05 | 1.01e-05 | no binding (tested: Koff > 5 × 10^3 (legend)) | no binding (tested: Koff > 5 × 10^3 (legend)) | no binding (tested: Koff > 5 × 10^3 (legend)) | –
S198 (scFv, V domains shown) VH: DVQLVESGGGVVRPGESLRLSCAASGFSFSSHAMNWVRQAPGEGLEWVSRINSGGGGTDYAESVKGRFTISRDNSENTLYLQMNSLRAEDTAVYYCAKQYDWNGFFDYWGLGALVTVSS VL: ETVLTQSPATLSVSPGERATLSCRASQTVGSKLAWHQQKPGQAPRLLIYDATNRATGIPDRFSGSGSGTDFTLTISSLQTEDSAVYYCQQYYYWPPYRFGGGTKVEIK | – | – | 7.73e-05 | 8.34e-05 | 0.000787 | 4.95e-05 | 3.67e-05 | 4.72e-05 | no binding (tested: Koff > 5 × 10^3 (legend)) | no binding (tested: Koff > 5 × 10^3 (legend)) | no binding (tested: Koff > 5 × 10^3 (legend)) | –
S132 (scFv, V domains shown) VH: DVQLVESGGGVVRPGESLRLSCAASGFSFRSYAMNWVRQAPGEGLEWVSRINSGGGGTDYADSVKGRFTISRDNSKNTLYLQMNSLRAEDTAVYYCAKQYDWNSFFDYWGLGALVTVSS VL: ETVLTQSPATLSVSPGERATLSCRASQTVGSKLAWHQQKPGQAPRLLIYDASNRATGIPDRFSGSGSGTDFTLTISSPQTEDSAVYYCQQYYYWPPYRFGGGTKVEIK | – | – | 7.12e-05 | 4.28e-05 | 7.95e-05 | 2.06e-05 | 3.34e-05 | 1.01e-05 | no binding (tested: Koff > 5 × 10^3 (legend)) | no binding (tested: Koff > 5 × 10^3 (legend)) | no binding (tested: Koff > 5 × 10^3 (legend)) | 1.05e-05
